Data from patent US20260184782A1 (TWIST BIOSCIENCE, published 2026).
Residue numbers refer to the chain shown, from its start.

T1: human TIGIT-Fc (human, UniProt Q495A1 22-141, limits assumed)
T1 construct: not shown: Fc; not described
T1 sequence (looked up): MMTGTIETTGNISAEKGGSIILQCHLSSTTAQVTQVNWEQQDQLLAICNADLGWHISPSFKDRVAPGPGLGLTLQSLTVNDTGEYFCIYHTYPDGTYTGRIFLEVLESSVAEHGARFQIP

T2: recombinant human TIGIT (human, UniProt Q495A1 22-141, limits assumed)
T2 construct: recombinant human TIGIT used in Carterra SPR; also called hTIGIT
T2 sequence (looked up): T1 sequence (looked up)

B1: TIGIT-SC95 (Fc fusion)
VHH: EVQLVESGGGLVQPGGSLRLSCAASGPTFSTNVMGWFRQAPGKEREFVSSIHWGGSSTVYADSVKGRFTISADNSKNTAYLQMNSLKPEDTAVYYCVTYSAYDFRNAWGQGTLVTVSS
notes: VHH-Fc
B2: TIGIT-SC142 (Fc fusion)
VHH: EVQLVESGGGLVQPGGSLRLSCAASGFSFDRWAMGWFRQAPGKEREFVAAIGWSGNLKAYADSVKGRFTISADNSKNTAYLQMNSLKPEDTAVYYCASGDGYSMDYFDPWGQGTLVTVSS
notes: VHH-Fc fusion in assay
B3: TIGIT-SC204 (Fc fusion)
VHH: EVQLVESGGGLVQPGGSLRLSCAASGFLFNSYWMVWFRQAPGKEREFVAAIWRSGTLKAYADSVKGRFTISADNSKNTAYLQMNSLKPEDTAVYYCAADVNYGSTWRNWGQGTLVTVSS
notes: VHH-Fc fusion in assay
B4: TIGIT-SC30 (Fc fusion)
VHH: EVQLVESGGGLVQPGGSLRLSCAASGRSFSSDWIGWFRQAPGKERELVAAIDWSGGSALYADSVKGRFTISADNSKNTAYLQMNSLKPEDTAVYYCARVNWNNVGWFDPWGQGTLVTVSS
notes: VHH-Fc fusion in assay
B5: TIGIT-SC140 (Fc fusion)
VHH: EVQLVESGGGLVQPGGSLRLSCAASGNTFSGGFTFDRSWMGWFRQAPGKEREWVASVLRGGYTWYADSVKGRFTISADNSKNTAYLQMNSLKPEDTAVYYCAGDRYYDFWSGPNSGDYWGQGTLVTVSS
notes: VHH-Fc fusion in assay
B6: TIGIT-SC27 (Fc fusion)
VHH: EVQLVESGGGLVQPGGSLRLSCAASGLTFSNYVMGWFRQAPGKEREVVAGILSDGRELYADSVKGRFTISADNSKNTAYLQMNSLKPEDTAVYYCARDVFGEGHWGQGTLVTVSS
notes: VHH-Fc fusion in assay
B7: TIGIT-SC137 (Fc fusion)
VHH: EVQLVESGGGLVQPGGSLRLSCAASGFTLENNMMGWFRQAPGKEREFVAAISRSGTLKAYADSVKGRFTISADNSKNTAYLQMNSLKPEDTAVYYCSLVSGPRWYWGQGTLVTVSS
notes: VHH-Fc fusion in assay
B8: TIGIT-SC45 (Fc fusion)
VHH: EVQLVESGGGLVQPGGSLRLSCAASGGTFNAMGWFRQAPGKEREWVASVLRGGYTWYADSVKGRFTISADNSKNTAYLQMNSLKPEDTAVYYCAKDGGSSGTYQNWWGQGTLVTVSS
notes: VHH-Fc fusion in assay
B9: TIGIT-SC96 (Fc fusion)
VHH: EVQLVESGGGLVQPGGSLRLSCAASGMTTIGPMGWFRQAPGKEREFVAAINWSGSSTVYADSVKGRFTISADNSKNTAYLQMNSLKPEDTAVYYCVTYSAYDFRNAWGQGTLVTVSS
notes: VHH-Fc fusion in assay
B10: TIGIT-SC118 (Fc fusion)
VHH: EVQLVESGGGLVQPGGSLRLSCAASGRTFSFMGWFRQAPGKEREWVASVLRGGYTWYADSVKGRFTISADNSKNTAYLQMNSLKPEDTAVYYCAKDGGWFDPWGQGTLVTVSS
notes: VHH-Fc fusion in assay
B11: TIGIT-SC205 (Fc fusion)
VHH: EVQLVESGGGLVQPGGSLRLSCAASGFTFDRSWMGWFRQAPGKEREFVAAIWRSGTLKAYADSVKGRFTISADNGKNTAYLQMNSLKPEDTAVYYCAEGGTTAWGWFVPWGQGTLVTVSS
notes: VHH-Fc fusion in assay
B12: TIGIT-SC109 (Fc fusion)
VHH: EVQLVESGGGLVQPGGSLRLSCAASGRDISSYIMGWFRQAPGKERELVAIIDTNGDDTLYADSAKGRFTISADNSKNTAYLQMNSLKPEDTAVYYCANGGRVWWAFDYWGQGTLVTVSS
notes: VHH-Fc fusion in assay
B13: TIGIT-SC174 (Fc fusion)
VHH: EVQLVESGGGLVQPGGSLRLSCAASGFLFDSYAMGWFRQAPGKEREFVAAISWSGGSTYYADSVKGRFTISADNSKNTAYLQMNSLKPEDTAVYYCTTDALRFLEWPWWGQGTLVTVSS
notes: VHH-Fc fusion in assay
B14: TIGIT-SC192 (Fc fusion)
VHH: EVQLVESGGGLVQPGGSLRLSCAASGFTFSVYWMGWFRQAPGKEREFVAAISRSGTLKEYADSVKGRFTISADNSKNTAYLQMNSLKPEDTAVYYCARGSGWPKIHFDYWGQGTLVTVSS
notes: VHH-Fc fusion in assay
B15: TIGIT-SC193 (Fc fusion)
VHH: B14 VHH with V31D, E59A
notes: VHH-Fc fusion in assay
B16: TIGIT-SC186 (Fc fusion)
VHH: EVQLVESGGGLVQPGGSLRLSCAASGNTFSGGFMGWFRQAPGKEREYVASVLRGGYTWYADSVKGRFTISADNSKNTTYLQMNSLKPEDTAVYYCTTDRGYNWNYDWGQGTLVTVSS
notes: VHH-Fc fusion in assay
B17: TIGIT-SC105 (Fc fusion)
VHH: EVQLVESGGGLVQPGGSLRLSCAASGFAFSRYGMGWFRQAPGKERELVATIGWSGSSTFYADSVKGRFTISADNSKNTAYLQMNSLKPEDTAVYYCARDGGPYYYGLDVWGQGTLVTVSS
notes: VHH-Fc fusion in assay
B18: TIGIT-SC199 (Fc fusion)
VHH: EVQLVESGGGLVQPGGSLRLSCAASGFSSAQYAMGWFRQAPGKERELVASIDSEGRTNYADSVKGRFTISADNSKNTAYLQMNSLKPEDTAVYYCTRDGGFDPWGQGTLVTVSS
notes: VHH-Fc fusion in assay
B19: TIGIT-SC177 (Fc fusion)
VHH: EVQLVESGGGLVQPGGSLRLSCAASGFTFSPSWMGWFRQAPGKEREWVASVLRGGYTWYADSVKGRFTISADNSKNTAYLQMNSLKPEDTAVYYCATDRGPAMVFNLWGQGTLVTVSS
notes: VHH-Fc fusion in assay
B20: TIGIT-SC181 (Fc fusion)
VHH: EVQLVESGGGLVQPGGSLRLSCAASGFTLSSNWMGWFRQAPGKEREFVASVLRGGYTWYADSVKGRFTISADNSKNTAYLQMNSLKPEDTAVYYCARDAYYYGLWGQGTLVTVSS
notes: VHH-Fc fusion in assay
B21: TIGIT-SC143 (Fc fusion)
VHH: EVQLVESGGGLVQPGGSLRLSCAASGFTLGYYVMGWFRQAPGKEREFVAAISASGTLRAYADSVEGRFTISADNSKNTAYLQMNSLKPEDTAVYYCARAELGYSYGSVDGYWGQGTLVTVSS
notes: VHH-Fc fusion in assay
B22: TIGIT-SC94 (Fc fusion)
VHH: EVQLVESGGGLVQPGGSLRLSCAASGSSFSAYAMGWFRQAPGKEREFVSLINWSSGKTIYADSVKGRFTISADNSKNTAYLQMNSLKPEDTAVYYCARVRIFNHVHRPSYYFDYWGQGTLVTVSS
notes: VHH-Fc fusion in assay
B23: TIGIT-SC202 (Fc fusion)
VHH: EVQLVESGGGLVQPGGSLRLSCAASGFTFSPSWMGWFRQAPGKEREWVASVLRGGYTWYADSVKGRFTISADNSKNTAYLQMNSLKPEDTAVYYCTTDGGYSGIVGFAWGQGTLVTVSS
notes: VHH-Fc fusion in assay
B24: TIGIT-SC141 (Fc fusion)
VHH: EVQLVESGGGLVQPGGSLRLSCAASGNAFSSSVMGWFRQAPGKEREFVAGIWRSGSLKAYADSVKGRFTISADNSKNTAYLQMNSLRPEDTAVYYCARAYVGMTTVTFDHWGQGTLVTVSS
notes: VHH-Fc fusion in assay
B25: TIGIT-SC146 (Fc fusion)
VHH: EVQLVESGGGLVQPGGGLRLSCAASGFTLENNMMGWFRQAPGKEREFVAAISASGTLRAYADSVKGRFTISADNSKNTAYLQMNSLKPEDTAVYYCAKGGQAGPMAFYFDYWGQGTLVTVSS
notes: VHH-Fc fusion in assay
B26: TIGIT-SC148 (Fc fusion)
VHH: EVQLVESGGGLVQPGGSLRLSCAASGDIGSINAMGWFRQAPGKEREFVAGIWRSGNLKAYADSVKGRFTISADNSKNTAYLQMSSLKPEDTAVYYCARGNIVVVPAAFVIWFDPWGQGTLVTVSS
notes: VHH-Fc fusion in assay
B27: TIGIT-SC152 (Fc fusion)
VHH: EVQLVESGGGLVQPGGNLRLSCAASGSTFSKHHAMGWFRQAPGKEREFVAGIIRSGTLKAYADSVKGRFTISADNSKNTAYLQMNSLKPEDTAVYYCTRGRAARHNLWYFDLWGQGTLVTVSS
notes: VHH-Fc fusion in assay
B28: TIGIT-SC60 (Fc fusion)
VHH: EVQLVESGGGLVQPGGSLRLSCAASGFTFSPSWMGWFRQAPGKEREWVASVLRGGYTWYADSVKGRFTISADNSKNTAYLQMNSLKPEDTAVYYCARDDLDYWGQGTLVTVSS
notes: VHH-Fc
B29: TIGIT-SC188 (Fc fusion)
VHH: B28 VHH with F27N, P31G, S32G, W33F, A96T, R97T, D99S, D101P, Y102G
notes: VHH-Fc

Legend:
human TIGIT-Fc = biological target: T1, human TIGIT-Fc; assay: CD155 competition ELISA, single point; further: test concentration or dose not given here
Experimental: TIGIT/CD155 inhibition of VHH-Fcs were assessed using an ELISA assay (Table 10B). Briefly, human TIGIT-Fc was coated on a plate & then incubated with VHH-Fcs and human CD155-biotin. Bound CD155-biotin was detected using a streptavidin-HRP conjugate visualized with TMB. Strong inhibitors from the single point screen were titrated to determine EC50 (Table 10C).

recombinant human TIGIT = biological target: T2, recombinant human TIGIT; assay: SPR Carterra, average
Experimental: Binding affinities of VHH-Fc proteins to recombinant human TIGIT were measured by SPR using a Carterra instrument (Table 10A). […] Average values reported from measurements from 1-2 samples.

Binder	OD (450 nm) (human TIGIT-Fc) [OD]	Kd (recombinant human TIGIT) [nM]	koff (recombinant human TIGIT) [s⁻¹]	kon (recombinant human TIGIT) [M⁻¹ s⁻¹]
B1	0.613	–	–	–
B2	–	66.5	0.0213	320000
B3	–	66.7	0.00339	50800
B4	–	67.3	0.0155	231000
B5	–	68.7	0.00474	68900
B6	–	80.6	0.00624	80900
B7	–	102	0.00688	67500
B8	–	103	0.00929	89900
B9	–	113	0.0176	166000
B10	–	114	0.00252	29700
B11	–	119	0.0854	718000
B12	–	121	0.00468	38700
B13	–	124	0.0335	444000
B14	–	131	0.0715	545000
B15	–	841	0.178	211000
B16	–	170	0.005	98700
B17	–	189	0.0116	61600
B18	–	321	0.128	399000
B19	–	340	0.00279	48600
B20	–	393	0.168	428000
B21	–	474	0.239	504000
B22	–	549	0.027	49200
B23	–	625	0.0934	93800
B24	–	903	0.151	167000
B25	–	1060	0.24	226000
B26	–	1320	0.16	121000
B27	–	1470	0.155	106000
B28	0.349	–	–	–
B29	0.524	–	–	–
